The text below walks through data of paper PMC4535883, “A Single-Strand Annealing Protein Clamps DNA to Detect and Secure Homology”.

The target of series [1] is T1, Redβ (single-strand annealing protein) (bacteriophage lambda, UniProt P03698 1-261).
T1 sequence: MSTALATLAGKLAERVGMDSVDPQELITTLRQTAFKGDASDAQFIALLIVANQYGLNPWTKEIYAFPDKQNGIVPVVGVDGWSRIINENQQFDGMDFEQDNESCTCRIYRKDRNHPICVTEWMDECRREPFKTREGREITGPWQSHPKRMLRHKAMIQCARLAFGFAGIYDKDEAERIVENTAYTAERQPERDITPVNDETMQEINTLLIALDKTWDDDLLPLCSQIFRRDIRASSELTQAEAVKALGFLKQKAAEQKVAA
In words: optical tweezers; preassembled filament; unzipping forces >200 pN, step 10 ± 2 bp; Buffer composition not in the material; optical tweezers at 29.2 °C. To be noted: protein: recombinant; tags: StrepII (stated for the purified protein used as western blot standard); 123 bp duplex, ssDNA spacers on both sides. On the technique in general: In western blotting, separated proteins are transferred to a membrane and probed.

Series [2] deals with T1, Redβ (single-strand annealing protein). Put plainly: CD; filament formed by Redβ annealing; CD shift at 210-220 nm; Buffer composition not in the material; optical tweezers at 29.2 °C. As to conditions: protein: recombinant; tags: StrepII (stated for the purified protein used as western blot standard); blunt; strands annealed by Redβ.
The target is the same in series [3]. In words: FCCS; half of ssDNA bound; about 30% bound at 100 nM; Hill coefficient close to 1; Buffer composition not in the material; optical tweezers at 29.2 °C. As to conditions: protein: recombinant; tags: StrepII (stated for the purified protein used as western blot standard); label: Atto 655 (5').
The target is the same in series [4]. In words: FCS/FCCS; per single binding site of Redβ monomer; global fit of isodesmic growth model; Buffer composition not in the material; optical tweezers at 29.2 °C. As to conditions: protein: recombinant; tags: StrepII (stated for the purified protein used as western blot standard); label: Atto 655 (5').
Series [5] has the same target. In words: FCS/FCCS; effective KEpstein for 30-b ssDNA, calculated as Kd/21; Buffer composition not in the material; optical tweezers at 29.2 °C. As to conditions: protein: recombinant; tags: StrepII (stated for the purified protein used as western blot standard); label: Atto 655 (5').
Series [6] has the same target. Put plainly: optical tweezers; preassembled filament, 750 nM Redβ; >20% of traces >100 pN; Buffer composition not in the material; optical tweezers at 29.2 °C. As to conditions: protein: recombinant; tags: StrepII (stated for the purified protein used as western blot standard); 25 bp duplex, ssDNA spacers on both sides.

B1: 123 bp high-force unzipping linker (dsDNA)
DNA 1: TGTTTAGTATGAGTCGAAATTCTTACGGCGTGTCAGAGAGGCAATGGCTTGACTTGTGGTGGATCACAGTTTGTGAGTAACGGCAAGATGCGGTAAACACTGTAATGCGAGCTTCATTGACTCGGCTTAAAGTTCCTGGT
DNA 2: TGACAGGAAACAGCACGCCAACCAGGAACTTTAAGCCGAGTCAATGAAGCTCGCATTACAGTGTTTACCGCATCTTGCCGTTACTCACAAACTGTGATCCACCACAAGTCAAGCCATTGCCTCTCTGACACGCCGTAAGAATTCGATAGGCAGCAGATTCTCTTTTCACCTTC
modifications: 5' phosphate on overhang A
In the case of B1, the binding result in series [1] is “binds”.

B2: CD 44-mer pair ssDNACD(1)+(2) (dsDNA)
DNA 1: GTAGAGTATAAGCACAGAGAGGATAGAGAACAATGGAGCGGGTGT
DNA 2: ACACCCGCTCCATTGTTCTCTATCCTCTCTGTGCTTATACTCTAC
As for B2, the binding result in series [2] is given as “binds”. One may read the Kd as the constant that tells how readily two partners part at equilibrium. Regarding ATGCCTCTCACTCGTCATCTTGTTTAGTAT (ssDNA) [ssDNA FCS 30 b], the “apparent K (half saturation)” value in series [3] was ~300 nM. In addition, the Kd in series [4] was 5000 ± 200 nM; in series [5] it was ~240 nM.

B3: 25 bp high-force unzipping linker (dsDNA)
DNA 1: TGTTTAGTATGAGTCGAAATTCTTACGGCGTGTCAGAGAGGC
DNA 2: TGACAGGAAACAGCACGCCAGCCTCTCTGACACGCCGTAAGAATTCGATAGGCAGCAGATTCTCTTTTCACCTTC
modifications: 5' phosphate on overhang A
In the case of B3, the binding result in series [6] is on record as “binds”.
